Data as given in PMC6972895.

Biological target: Chaperonin-containing TCP-1 (CCT) oligomeric complex (human (endogenous in T47D)) (UniProt P17987)
Test: native gel or EMSA; native PAGE of T47D CCT2-FLAG cell lysates; blotted for FLAG, CCT2 and CCT3; oligomeric complex against free monomer

B1: CCT2-FLAG (FLAG-tagged CCT2, FLAG tag on the C-terminal of CCT2) (natural protein)
chain: MASLSLAPVNIFKAGADEERAETARLTSFIGAIAIGDLVKSTLGPKGMDKILLSSGRDASLMVTNDGATILKNIGVDNPAAKVLVDMSRVQDDEVGDGTTSVTVLAAELLREAESLIAKKIHPQTIIAGWREATKAAREALLSSAVDHGSDEVKFRQDLMNIAGTTLSSKLLTHHKDHFTKLAVEAVLRLKGSGNLEAIHIIKKLGGSLADSYLDEGFLLDKKIGVNQPKRIENAKILIANTGMDTDKIKIFGSRVRVDSTAKVAEIEHAEKEKMKEKVERILKHGINCFINRQLIYNYPEQLFGAAGVMAIEHADFAGVERLALVTGGEIASTFDHPELVKLGSCKLIEEVMIGEDKLIHFSGVALGEACTIVLRGATQQILDEAERSLHDALCVLAQTVKDSRTVYGGGCSEMLMAHAVTQLANRTPGKEAVAMESYAKALRMLPTIIADNAGYDSADLVAQLRAAHSEGNTTAGLDMREGTIGDMAILGITESFQVKRQVLLSAAEAAEVILRVDNIIKAAPRKRVPDHHPC
With B1 the percent of the total FLAG signal as free monomer was 24%.
